According to article PMC11929074, “An in vitro platform for the enzymatic characterization of the rhomboid protease RHBDL4” (The Journal of Biological Chemistry, 2025):
“Also recorded” adds a separate entry of the source. The star is where a group is joined. Dnp = O=[N+]([O-])c1ccc(*)c([N+](=O)[O-])c1; Mca = COc1ccc2c(CC(=O)*)cc(=O)oc2c1

What was measured:
recombinant human RHBDL4 [1] = molecular target: T1, recombinant human RHBDL4 (Homo sapiens, UniProt Q8TEB9); assay: FRET-based cleavage assay with fluorescent (IQ / KSp207) substrates; format: biochemical; conditions: for RHBDL4-catalyzed activity towards GlpG/PARL model substrates: in vitro cleavage assay; for kcat: average ± S.E.M.
T1 construct: The entire RHBDL4 and RHBDL4-S144A cDNAs were subcloned into the pcDNA3.1 vector; 6xHis (C, cleaved yes); made in house; host or cells: Freestyle 293-F cells (transient transfection, pcDNA3.1-HisA)
T1 sequence (Q8TEB9 1-315): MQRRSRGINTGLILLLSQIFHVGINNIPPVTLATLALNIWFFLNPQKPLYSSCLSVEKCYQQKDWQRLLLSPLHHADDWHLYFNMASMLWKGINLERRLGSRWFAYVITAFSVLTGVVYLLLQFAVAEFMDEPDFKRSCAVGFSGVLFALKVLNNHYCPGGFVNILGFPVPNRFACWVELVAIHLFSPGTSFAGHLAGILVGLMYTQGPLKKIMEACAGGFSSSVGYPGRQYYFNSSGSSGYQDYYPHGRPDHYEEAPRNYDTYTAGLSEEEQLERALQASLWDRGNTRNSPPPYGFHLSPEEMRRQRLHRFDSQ
Experimental: Figure 2 Kinetic characterization of recombinant human RHBDL4.A, schematic representation of the FRET-based cleavage assay using internally quenched (IQ) substrates. B, saturation curves of RHBDL4 using the fluorescent IQ substrates, IQ6, IQ41, and IQ46. C, pH dependence of the RHBDL4 protease activity using substrates IQ6, IQ41, and IQ46. D, salt concentration dependence of the RHBDL4 protease activity using substrates IQ6, IQ41, and IQ46. All the assays were performed in triplicate, and data points are represented by the average ± S.E.M. TEXT PRINTED IN THE PICTURE: (B) IQ 6: KM(μM) 10.73±2; Kcat(hr^-1) 7.33±0.6 | (B) IQ 41: KM(μM) 5.63±2; Kcat(hr^-1) 2.41±0.6 | (B) IQ 46: KM(μM) 7.19±1; Kcat(hr^-1) 3.62±0.8
(§1) The reaction setup in our FRET assay enabled the direct determination of Michaelis–Menten kinetic parameters Km and kcat for the cleavage of IQ6, IQ41, and IQ46 by RHBDL4. Our fluorescence reading data were converted to μM/h using the standard calibration curve for all three IQ substrates, and the correction factor for the inner filter effect was applied. We confirmed that purified RHBDL4 followed Michaelis–Menten kinetics with KmIQ6=10.73±2μΜ , KmIQ41=5.63±2μΜ , and KmIQ46=7.19±1μΜ and kcatIQ6=7.33±0.6h^−1 , kcatIQ41=2.41±0.6h^−1 , and kcatIQ46=3.62±0.08h^−1 (Figs. 2B and S2B).
Our FRET-based assay is a suitable platform for optimizing conditions that enhance RHBDL4 protease activity. To this end, we selected the optimal pH for RHBDL4 protease activity and performed FRET-based assays with IQ6, IQ41, and IQ46 at a pH range of 5 to 10. […] The optimal salt concentration for the RHBDL4 protease activity was also tested in the range of 100 to 300 mM (Fig. 2D). We conclude that with the IQ6, IQ41, and IQ46 substrates, RHBDL4 had satisfactory activity in a salt concentration range of 100 to 300 mM.
Figure 5 In vitro inhibition of RHBDL4 activity with TMED7-derived peptidyl α-ketoamides.A, schematic representation of the peptidyl-α-ketoamide inhibitor, compound 3 and 4. B, representative inhibition curve derived from measuring rates of RHBDL4 proteolysis of the fluorescent substrate IQ6 with increasing concentrations of compound 3. C, same as (B), except inhibition curve was derived from using increasing concentrations of compound 4. […] Reactions were quenched with 1 RLaemmli buffer and loaded on 12% SDS-PAGE gel. Post-transfer membranes were visualized using a fluorescence Cy3 filter and by Western blotting using an α-His antibody. E, saturation curve of RHBDL4 using fluorescent substrate, KSp207. For (B and C), all inhibitors were pre-incubated with RHBDL4 for 1 h and allowed to react with the IQ6 substrate for 2 h. […]
(§2) The enzymatic assay was performed as previously described (Arutyunova et al., 2014, ([26])). […] The FRET-based cleavage assay was conducted in a fluorescence multiwell plate reader (SynergyMx, BioTek). Upon excitation at 320 nm, the emission intensity at 400 nm was recorded for 2 h at minimal intervals under shaking conditions and plotted using the GraphPad PRISM software. The initial velocities were defined as the slopes of the curve of the generated product as a function of time. The plots of the generated product against the corresponding substrate concentration were fitted with the Michaelis–Menten equation. Catalytic parameters were extrapolated using GraphPad PRISM. […] The samples were desalted using C18 tips (Rainin), eluted in 80% acetonitrile, and dried down in a vacuum centrifuge prior to mass spectrometry analysis.
All the calculations for Km, Vmax, and Kcat for RHBDL4 and its mutants were performed using GraphPad PRISM.

[2] = system: bacterial rhomboid protease GlpG; conditions: ref [26], [27]; cited from earlier work
RHBDL4-AR = assay: FRET-based cleavage of IQ6 by RHBDL4-AR mutant (WR motif); format: biochemical, human; conditions: IQ6 substrate; n = 3
From the text: (§3) All mutants had robust expression on day 3 post-transfection of Freestyle 293-F cells, when cells were harvested for purification. RHBDL4 contains two motifs that are well conserved among the rhomboid superfamily, the WR motif in L1 and the Gx3G motif in TM domain 6 (Fig. S3, A and B) ([8]). Both motifs are required for RHBDL4-mediated ERAD function (Fleig et al. 2012). We predicted that both AR and Ax3G mutants would result in lower RHBDL4 activity. To that end, RHBDL4-AR and RHBDL4-Ax3G were expressed and purified using affinity Ni-NTA column followed by SEC (Fig. 3, B and C). […]
(§4) Figure 3 Dependence of conserved rhomboid motifs on RHBDL4 protease activity.A, RHBDL4 representation highlighting TM1–6 (in green), the VBM- and UIM-binding motifs (in blue), the conserved rhomboid motifs (WR and Gx3G), and the serine-histidine catalytic dyad (in pink). […] D, activity profiles of the WT RHBDL4 and mutant RHBDL4-S144A, RHBDL4-AR, and RHBDL4-Ax3G proteins, as measured by cleavage of the fluorescent substrate IQ6. […]
(§5) The enzymatic assay was performed as previously described (Arutyunova et al., 2014, ([26])). […] The FRET-based cleavage assay was conducted in a fluorescence multiwell plate reader (SynergyMx, BioTek). Upon excitation at 320 nm, the emission intensity at 400 nm was recorded for 2 h at minimal intervals under shaking conditions and plotted using the GraphPad PRISM software. […]

RHBDL4-Ax3G = assay: FRET-based cleavage of IQ6 by RHBDL4-Ax3G mutant; format: biochemical, human; conditions: IQ6 substrate; n = 3
From the text: as §3, §4, §5

RHBDL4-S144A = assay: FRET-based cleavage by inactive RHBDL4-S144A; format: biochemical, human; conditions: pH 8, 37 °C
From the text: as §1
Figure 3 Dependence of conserved rhomboid motifs on RHBDL4 protease activity.A, RHBDL4 representation highlighting TM1–6 (in green), the VBM- and UIM-binding motifs (in blue), the conserved rhomboid motifs (WR and Gx3G), and the serine-histidine catalytic dyad (in pink). The table indicates the RHBDL4 region, the conserved rhomboid motifs, and amino acid mutation. The RHBDL4 proteolytic activity. B, size-exclusion chromatography profile of RHBDL4-AR and RHBDL4-Ax3G, being eluted as a monomeric protein. C, coomassie staining and Western blotting using an α-His antibody of concentrated purified RHBDL4-AR and RHBDL4-Ax3G. D, activity profiles of the WT RHBDL4 and mutant RHBDL4-S144A, RHBDL4-AR, and RHBDL4-Ax3G proteins, as measured by cleavage of the fluorescent substrate IQ6. Assay was performed in triplicate (n = 3), and data points are represented by the average ± S.E.M. Statistically significant differences compared to WT RHBDL4 are indicated (pairwise Dunnett's test followed by Bonferroni's post hoc analysis; ∗p < 0.05, n.s., no significance).
as §5

recombinant human RHBDL4 [3] = molecular target: T1, recombinant human RHBDL4; assay: Mass spectrometry identification of cleavage sites in IQ6; format: biochemical; conditions: 1.5 μM RHBDL4, 10 μM IQ6, 4 h, room temperature, quenched with 8 M GuHCl; MS/MS
Experimental: as §2
Supplemental Information 4. […] (B) Depiction of IQ6 cleavage sites as determined from tandem mass spectrometry (MS/MS). (C) Peptide sequence of GlpG-derived and PARL-derived fluorescent substrates IQ4 and IQ15, respectively. (D) Activity profiles of the wild-type RHBDL4 and mutant RHBDL4-S144A, as measured by cleavage of the fluorescent substrates IQ4 and IQ15. Assays was performed in triplicate, and data points are represented by the average ± S.E.M.

[4] = system: mammalian rhomboid protease PARL; conditions: ref [26], [27]; cited from earlier work

Substance | RHBDL4-catalyzed activity towards GlpG/PARL model substrates (recombinant human RHBDL4 [1]; triplicate) | cleavage by GlpG [2] | kcat (recombinant human RHBDL4 [1]; 37 °C, pH 8.0, triplicate) [s⁻¹] | cleavage rate/efficiency relative to other substrates (recombinant human RHBDL4 [1]; FRET-based assay) | faster kinetics in comparison to IQ41 (recombinant human RHBDL4 [1]; IQ6 versus IQ41) | faster kinetics in comparison to IQ46 (recombinant human RHBDL4 [1]; IQ6 versus IQ46) | kcat (recombinant human RHBDL4 [1]; Michaelis-Menten, 1.5 μM RHBDL4, 37 °C, 2 h, pH 8.0, 150 mM NaCl, 0.1% DDM, triplicate) [s⁻¹] | catalytic rate (cleavage rate) (recombinant human RHBDL4 [1]; approximate, discussion) | pH of highest RHBDL4 protease activity (recombinant human RHBDL4 [1]; pH range 5 to 10, triplicate) | salt concentration range with satisfactory activity (recombinant human RHBDL4 [1]; salt tested 100 to 300 mM, triplicate) [mM] | decrease in activity compared with WT RHBDL4 (RHBDL4-AR) [fold] | enzymatic cleavage activity compared with WT RHBDL4 (RHBDL4-Ax3G) | cleavage by inactive RHBDL4-S144A (increase in fluorescence / activity) (RHBDL4-S144A) | N-terminal cleavage products (recombinant human RHBDL4 [3]) | cleavage by PARL [4]
mca-RPKPYAvWMK(dnp) [IQ4, GlpG model substrate mca-RPKPYAvWMK(dnp)] | did not observe any RHBDL4-catalyzed activity | cleave | – | – | – | – | – | – | – | – | – | – | – | – | –
Mca-Arg-Pro-Pro-Gly-Phe-Ser-Ala-Phe-Lys (DNP)-OH (Mca-RPPGFSAFK(Dnp)-OH; SMILES COc1ccc2c(CC(=O)N[C@@H](CCCNC(=N)N)C(=O)N3CCC[C@H]3C(=O)N3CCC[C@H]3C(=O)NCC(=O)N[C@@H](Cc3ccccc3)C(=O)N[C@@H](CO)C(=O)N[C@@H](C)C(=O)N[C@@H](Cc3ccccc3)C(=O)N[C@@H](CCCCNc3ccc([N+](=O)[O-])cc3[N+](=O)[O-])C(=O)O)cc(=O)oc2c1) [IQ6, fluorescent internally quenched substrate mca-…(dnp)] | – | – | 0.00204 ± 0.00017 | exhibited the highest cleavage rate for RHBDL4 proteolysis; also recorded: maximum activity | three-fold | two-fold | 0.00204 ± 0.00017 | approximately 7 /h | 8 | 100 to 300 | ~6 | retained enzymatic cleavage activity at levels comparable to WT RHBDL4 | negligible increase in fluorescence; also recorded: negligible activity | mca-RPPGFSA and mca-RPPGFS | –
mca-AVFLSAVAG(dnp) [IQ15, PGAM-derived PARL model substrate mca-…(dnp)] | did not observe any RHBDL4-catalyzed activity | – | – | – | – | – | – | – | – | – | – | – | – | – | cleave
